Positions count from the first letter of the chain named.

The labels stand for the following.
B1: NGAL mutant C1 (ligand)
chain: QDSTSDLIPAPPLSKVPLQQNFQDNQFQGKWYVVGLAGNAILREDKDPQTMYATIYELKEDKSYNVTSVLFQKKKCDYWIRTFVPGCQPGEFTLGNIKSYPGLTSYLVRVVSTNYNQHAMVFFKKVSQNQEYFKITLYGRTKELTSELQENFIRFSQSLGLPENHIVFPVPIDQCIDG
B2: NGAL mutant C3 (ligand)
chain: B1 chain with K15S, Q130R
B3: K3 NGAL mutant protein (ligand)
chain: QDSTSDLIPAPPLSSVPLQQNFQDNQFQGKWYVVGLAGNAILREDEDPQKMYATIYELKEDKSYNVTSVLFRDDGCDYWIRTFVPGCQPGEFTLGNIQSYPGLTSYLVRVVSTNYNQFAMVFFKKVSQNQEYFKITLYGRTKELTSELQENFIRFSKSLGLPENNIVFPVPIDQCIDG
notes: Mutant of human NGAL, made in E. coli as for the wild type (GST fusion vector); Runs as monomer and dimer on Western blot; also called K6 (i.e, K3); Mut1
B4: NGAL mutant B2 (ligand)
chain: B3 chain with D73K, D74K, G75K, Q98K, Q130R, Q149K
B5: NGAL mutant B4 (ligand)
chain: B1 chain with K46E, T50K, Q72R, K98Q, Q130R, Q149K, Q157K
B6: NGAL mutant B3 (ligand)
chain: B1 chain with K46E, T50K, Q72R, Q130R, Q149K, Q157K, H165N
B7: K3Cys protein (ligand)
chain: B3 chain with C87S
notes: only monomers seen; also called K3Cys NGAL; Mut2
B8: wild-type human NGAL (Neutrophil Gelatinase-Associated Lipocalin) (ligand)
chain: B1 chain with T50K, Q72R, Q130R, Q149K, Q157K

T1 sequence (A2ARV4 26-4660 limits assumed): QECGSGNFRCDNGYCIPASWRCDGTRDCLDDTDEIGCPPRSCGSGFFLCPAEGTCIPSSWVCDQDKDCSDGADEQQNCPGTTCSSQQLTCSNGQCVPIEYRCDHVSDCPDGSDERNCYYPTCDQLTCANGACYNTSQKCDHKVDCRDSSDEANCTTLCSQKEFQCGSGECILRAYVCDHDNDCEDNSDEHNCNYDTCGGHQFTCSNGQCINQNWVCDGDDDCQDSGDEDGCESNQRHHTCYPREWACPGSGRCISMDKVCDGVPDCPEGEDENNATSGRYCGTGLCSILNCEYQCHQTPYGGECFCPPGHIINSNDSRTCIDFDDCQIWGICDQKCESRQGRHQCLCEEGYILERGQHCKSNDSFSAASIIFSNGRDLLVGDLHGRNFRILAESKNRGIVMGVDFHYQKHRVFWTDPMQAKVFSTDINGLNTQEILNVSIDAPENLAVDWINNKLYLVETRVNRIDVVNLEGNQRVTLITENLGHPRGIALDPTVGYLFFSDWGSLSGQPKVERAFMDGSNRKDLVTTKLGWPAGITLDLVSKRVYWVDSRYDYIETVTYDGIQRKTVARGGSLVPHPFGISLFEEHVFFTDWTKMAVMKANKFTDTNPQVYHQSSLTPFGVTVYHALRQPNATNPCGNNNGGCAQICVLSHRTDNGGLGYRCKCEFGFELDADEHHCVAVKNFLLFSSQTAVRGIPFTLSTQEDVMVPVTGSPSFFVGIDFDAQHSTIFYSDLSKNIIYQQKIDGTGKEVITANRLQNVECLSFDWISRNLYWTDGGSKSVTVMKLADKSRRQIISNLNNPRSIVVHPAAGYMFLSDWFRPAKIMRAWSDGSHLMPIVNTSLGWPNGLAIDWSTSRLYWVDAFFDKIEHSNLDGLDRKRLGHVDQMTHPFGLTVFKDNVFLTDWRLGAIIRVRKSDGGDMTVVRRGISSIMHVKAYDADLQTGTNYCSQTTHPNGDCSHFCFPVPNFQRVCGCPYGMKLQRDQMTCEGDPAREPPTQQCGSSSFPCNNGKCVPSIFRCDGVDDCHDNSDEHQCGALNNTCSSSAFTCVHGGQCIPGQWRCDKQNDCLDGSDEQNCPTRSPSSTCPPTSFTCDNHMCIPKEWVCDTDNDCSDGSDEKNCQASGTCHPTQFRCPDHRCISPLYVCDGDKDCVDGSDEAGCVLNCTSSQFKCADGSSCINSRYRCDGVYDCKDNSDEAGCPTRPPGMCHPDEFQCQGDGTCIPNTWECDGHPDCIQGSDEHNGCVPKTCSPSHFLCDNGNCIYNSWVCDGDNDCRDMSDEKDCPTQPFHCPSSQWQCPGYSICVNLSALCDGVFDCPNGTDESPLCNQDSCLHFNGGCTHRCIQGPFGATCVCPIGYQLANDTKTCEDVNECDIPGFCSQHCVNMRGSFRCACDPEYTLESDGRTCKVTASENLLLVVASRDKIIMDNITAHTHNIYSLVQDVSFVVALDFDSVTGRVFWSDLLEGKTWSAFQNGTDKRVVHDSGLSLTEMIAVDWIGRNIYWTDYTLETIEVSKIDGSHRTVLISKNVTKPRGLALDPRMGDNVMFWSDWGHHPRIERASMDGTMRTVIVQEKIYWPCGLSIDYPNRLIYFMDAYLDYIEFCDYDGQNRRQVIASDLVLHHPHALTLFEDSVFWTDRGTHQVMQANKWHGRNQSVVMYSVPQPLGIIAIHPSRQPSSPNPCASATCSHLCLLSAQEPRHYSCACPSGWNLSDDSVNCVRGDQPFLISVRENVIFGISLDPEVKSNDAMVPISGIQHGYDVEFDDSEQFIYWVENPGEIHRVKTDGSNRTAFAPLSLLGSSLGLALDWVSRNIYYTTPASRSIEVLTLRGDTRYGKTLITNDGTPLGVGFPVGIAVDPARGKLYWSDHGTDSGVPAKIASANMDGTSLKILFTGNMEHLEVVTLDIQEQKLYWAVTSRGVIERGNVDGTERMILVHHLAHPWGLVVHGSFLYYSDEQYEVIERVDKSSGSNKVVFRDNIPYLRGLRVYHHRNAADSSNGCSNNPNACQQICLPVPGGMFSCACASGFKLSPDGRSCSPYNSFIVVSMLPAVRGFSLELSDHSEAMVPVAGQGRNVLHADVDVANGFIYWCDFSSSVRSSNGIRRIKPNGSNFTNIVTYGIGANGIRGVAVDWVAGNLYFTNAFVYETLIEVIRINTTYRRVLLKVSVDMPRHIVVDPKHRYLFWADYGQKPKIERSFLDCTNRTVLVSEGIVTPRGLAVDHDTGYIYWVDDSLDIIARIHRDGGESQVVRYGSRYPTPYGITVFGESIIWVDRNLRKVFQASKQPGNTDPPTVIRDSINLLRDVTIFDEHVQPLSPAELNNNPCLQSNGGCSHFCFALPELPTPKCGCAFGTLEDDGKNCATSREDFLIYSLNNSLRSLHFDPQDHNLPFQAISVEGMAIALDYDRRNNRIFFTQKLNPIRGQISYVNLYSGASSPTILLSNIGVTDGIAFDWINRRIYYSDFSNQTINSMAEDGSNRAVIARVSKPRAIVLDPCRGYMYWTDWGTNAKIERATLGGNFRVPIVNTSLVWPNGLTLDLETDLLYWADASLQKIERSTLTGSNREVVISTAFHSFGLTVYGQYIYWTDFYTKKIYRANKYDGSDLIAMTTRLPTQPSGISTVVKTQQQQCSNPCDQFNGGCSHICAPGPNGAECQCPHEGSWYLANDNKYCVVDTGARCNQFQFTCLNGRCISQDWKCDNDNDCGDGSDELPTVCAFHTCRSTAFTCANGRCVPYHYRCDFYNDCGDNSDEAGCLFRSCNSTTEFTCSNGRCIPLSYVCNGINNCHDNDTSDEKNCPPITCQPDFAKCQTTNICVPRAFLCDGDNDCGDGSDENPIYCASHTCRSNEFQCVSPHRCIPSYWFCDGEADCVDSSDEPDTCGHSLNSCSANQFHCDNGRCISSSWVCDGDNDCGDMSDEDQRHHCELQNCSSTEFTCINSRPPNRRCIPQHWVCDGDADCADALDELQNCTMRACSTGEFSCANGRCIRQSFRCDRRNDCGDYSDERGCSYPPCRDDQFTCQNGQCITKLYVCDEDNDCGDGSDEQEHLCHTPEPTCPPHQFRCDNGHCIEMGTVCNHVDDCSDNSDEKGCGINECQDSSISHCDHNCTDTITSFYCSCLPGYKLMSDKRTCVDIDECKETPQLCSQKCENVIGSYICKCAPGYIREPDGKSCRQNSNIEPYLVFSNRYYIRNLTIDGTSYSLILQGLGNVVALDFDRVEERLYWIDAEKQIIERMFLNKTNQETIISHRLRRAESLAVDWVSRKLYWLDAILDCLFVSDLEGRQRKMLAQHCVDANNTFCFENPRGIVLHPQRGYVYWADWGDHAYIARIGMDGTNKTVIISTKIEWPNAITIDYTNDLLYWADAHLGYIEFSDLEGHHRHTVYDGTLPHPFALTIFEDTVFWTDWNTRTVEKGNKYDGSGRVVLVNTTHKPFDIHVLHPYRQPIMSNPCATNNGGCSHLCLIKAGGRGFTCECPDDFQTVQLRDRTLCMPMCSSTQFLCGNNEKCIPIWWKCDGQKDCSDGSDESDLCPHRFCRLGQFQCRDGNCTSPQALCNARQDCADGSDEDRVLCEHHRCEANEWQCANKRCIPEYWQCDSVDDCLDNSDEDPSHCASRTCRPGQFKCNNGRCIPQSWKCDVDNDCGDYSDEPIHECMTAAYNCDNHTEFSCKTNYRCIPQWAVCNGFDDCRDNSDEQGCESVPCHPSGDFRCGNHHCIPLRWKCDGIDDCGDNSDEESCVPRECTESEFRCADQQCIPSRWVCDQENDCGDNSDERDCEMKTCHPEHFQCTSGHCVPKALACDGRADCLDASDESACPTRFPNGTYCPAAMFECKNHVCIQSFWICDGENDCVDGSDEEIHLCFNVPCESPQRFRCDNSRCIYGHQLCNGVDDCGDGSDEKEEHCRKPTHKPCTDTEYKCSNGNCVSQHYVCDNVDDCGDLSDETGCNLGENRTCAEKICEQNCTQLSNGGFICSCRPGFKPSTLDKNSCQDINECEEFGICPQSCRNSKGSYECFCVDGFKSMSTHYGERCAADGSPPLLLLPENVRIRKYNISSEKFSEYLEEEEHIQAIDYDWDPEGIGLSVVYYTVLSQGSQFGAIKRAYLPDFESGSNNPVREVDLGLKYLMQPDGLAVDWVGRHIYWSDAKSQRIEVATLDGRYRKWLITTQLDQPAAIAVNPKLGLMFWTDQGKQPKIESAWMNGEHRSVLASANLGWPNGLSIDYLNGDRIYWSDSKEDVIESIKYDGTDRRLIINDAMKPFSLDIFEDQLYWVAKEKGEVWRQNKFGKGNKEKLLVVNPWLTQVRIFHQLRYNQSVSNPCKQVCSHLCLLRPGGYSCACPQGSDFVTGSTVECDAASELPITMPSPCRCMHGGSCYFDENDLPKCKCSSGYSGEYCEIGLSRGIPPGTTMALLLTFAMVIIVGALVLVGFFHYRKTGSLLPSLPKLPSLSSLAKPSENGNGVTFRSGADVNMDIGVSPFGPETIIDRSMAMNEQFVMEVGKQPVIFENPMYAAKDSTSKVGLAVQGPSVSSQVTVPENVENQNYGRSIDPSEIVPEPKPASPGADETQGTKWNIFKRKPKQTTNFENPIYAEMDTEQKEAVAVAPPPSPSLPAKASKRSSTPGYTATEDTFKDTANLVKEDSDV

The first series addresses T1, mouse megalin (mouse, UniProt A2ARV4 26-4660). The series can be described thus: cell-based or functional assay.
As for B1, the “Accumulation 3 hours after i.p. injection (%): Urine (Ngal-enterochelin-55Fe3+ complex, C57BL/6 mice)” value amounted to 0.72%. Take B2: the “Accumulation 3 hours after i.p. injection (%): Urine (Ngal-enterochelin-55Fe3+ complex, C57BL/6 mice)” value turned out to be 0.44%.

As for B3, the “Accumulation 3 hours after i.p. injection (%): Urine (Ngal-enterochelin-55Fe3+ complex, C57BL/6 mice)” value is 19.6%. The same measure, in the same setting: next, B4: 1.22%; B5: 0.13%. As to B6, the “Accumulation 3 hours after i.p. injection (%): Urine (Ngal-enterochelin-55Fe3+ complex, C57BL/6 mice)” value worked out at 0.3%.

Another series deals with the molecule itself. The series can be described thus: Western blot of purified NGAL and of NGAL recovered from mouse urine, homodimer band against monomer band. The method, then:
FIGS. 22A-22B. FIG. 22A. Left: Western blot of different species of NGAL. Wild type NGAL forms protein dimers (46-50 KDa) from monomers (at 23-25 KDa). Similarly the Mutant1 (K3 NGAL) forms dimers from monomers. However, Mutant2 (K3Cys) only forms monomers. Right. NGAL proteins (Wt, Mut1 and Mut2) were injected into mice, and the NGAL proteins in the urine (uWt=urinary wild-type protein; uMut1=urinary Mut1 K3 and uMut2=urinary Mut2 K3Cys) were collected at two different time points, and analyzed by Western Blot. For each protein (uWt, uMut1 and uMut2), the 1st lane on the Western blot represents proteins that were collected in the urine 20 min. after the injection and the 2nd lane on the Western blot represents proteins that were collected from the mouse at 180 min. after the injection. Very low levels of uWt appear in urine, whereas higher levels of both uMut1 and uMut2 appear in urine. uMut1 forms both monomers and dimers, whereas uMut2 only forms monomers. FIG. 22B. Mice were injected with NGAL proteins (Wt, Mut1 and Mut2) that were labeled with the dye Alexa Fluor™ 568 (Molecular Probes-Invitrogen), which covalently attaches to the proteins. […]
Background: Immunoblotting shows a protein as a band on a membrane.
With B3, the binding result was “binds”. Still for that read-out and setting: the same measure for B7: “no binding”.

The target in the next series is T1, mouse megalin. The series can be described thus: cell-based or functional assay. The source holds these as a separate data set.
Turning to B3, the “percent of injected Ngal:Ent:59FeIII complex delivered to mouse urine in 3 hrs” value (“percent” for short) came to 23%. For the molecule B8, the “percent” value is less than 0.1%. For the molecule B7, the “percent” value was approximately 100%.

Source of the values: patent US20230414709A1 (TRUSTEES OF COLUMBIA UNIVERSITY IN THE CITY OF NEW YORK, published 2023).
